According to patent US5574007:

What was measured:
protein C [1] = target: protein C
thrombin [2] = target: thrombin
protein C [3] = target: protein C; remark: listed apart in the source
thrombin [4] = target: thrombin; remark: listed apart in the source

Row | Binder | amount of activated protein C formed, 30 min after the polypeptide addition (Example 5) (% larger than with E456Glu) (protein C [1]) | amount of activated protein C formed, 30 min after the polypeptide addition (Example 5) (% larger than with E456Glu) (thrombin [2]) | production of activated protein C (protein C [3]) [pmol] | production of activated protein C (thrombin [4]) [pmol]
1 | polypeptide E456GlaAsp (receptor, gamma-carboxyglutamic acid (Gla) in place of the Glu inserted before Asp367 (third residue of the purified polypeptide, where Edman degradation detected no amino acid; Gla confirmed by amino acid analysis)) PVEDPCFRANCEYQCQPLNQTSYLCVCAEGFAPIPHEPHRCQMFCNQTACPADCDPNTQASCECPEGYILDDGFICTDIDECENGGFCSGVCHNLPGTFECICGPDSALVRHIGTDC | 80 | 80 |  | 
2 | polypeptide E45 (receptor) DPCFRANCEYQCQPLNQTSYLCVCAEGFAPIPHEPHRCQMFCNQTACPADCDPNTQASCECPEGYILDDGFICTDI |  |  | 1.7 | 1.7
